Results on one molecule are retold here after patent US20180016322A1 (INSERM INSTITUT NATIONAL DE LA SANTE ET DE LA RECHERCHE …, published 2018).

The target in the assay is synthetic MBP-HIS-EBOV-GP fusion peptide (Zaire Ebolavirus (EBOV), UniProt P0AEX9 27-392 = MBP). The assay can be described thus: ELISA on coated recombinant fusion protein. A general note: In an ELISA, binding on a coated surface is turned into a signal by an enzyme label.

B1: murine monoclonal antibody 3327 (antibody, V domains shown)
VH: EVQLQESGPSLGKPSQTLSLTCSVTGDSITSGYWNWIRKFPGSKLEYMGYITSSGSTYYNPSLKSRISITRDTSKNQYYLQLNSVTSEDTATYYCAREGARSSGGWYFDVWGAGTTVTVSS
VL: DIVMTQSHKFMSTSVGDRVSITCKASQDVSSAVVWYQQKPGQSPKLLIYWASTRHTGVPDRFTGSGSGTDYTLTISSVQAEDLALYYCQQHYSTPTFGGGTKLEIKR
For B1, the binding result was “no binding”.
